Kd, ΔIstd and ΔRmax data for three molecules are collected here from patent US9625458B2, “Biosensor” (priority 2002, dated 2017).

Residue numbers refer to the chain shown, from its start. Numbers in names are those of the source.

A short description of test [1]: Fe(III) affinity of Fe(III) BP from competition with Fe(III) chelates / Fe(III) citrate. It counts as binding. The settings on record: E57D mutation; assuming logK=10.25 for 1:1 Fe(III) citrate complex; unit inferred. The source says: Family of biosensors. A set of eleven bPBPs with widely varying ligand-binding specificities was selected for engineering biosensor function (Table 2). All were from E. coli except Fe(III) BP, which is from Haemophilus influenzae. Binding specificities and affinities of these proteins for their respective ligands have been characterized (references in Table 2). […] Most of these bPBPs bind at most two or three related ligands with high affinity (micromolar or better). […] Measured ligand dissociation constants in these proteins are typically in the range of 0.1 to 1 μM.
Cysteine point mutations were introduced by the PCR overlap method (Ho et al., Gene 77:51-59, 1989). Mutant proteins typically expressed as well as the wild type protein. […] In the case of Fe(III) BP, all mutations were constructed in the E57D background. […] This permitted straightforward determination of Fe(III) affinity by direct titration with Fe(III) citrate at nanomolar concentrations of Fe(III) BP.

Test [2] can be described thus: Fluorimetric titration of Fe(III) BP (E57D) conjugates with Fe(III) citrate. It is filed as binding. To be noted: E57D background, read-out: Kd of Fe(III) BP conjugate. On the procedure: (§1) Fluorimetry. All measurements were conducted with an SLM Aminco-Bowman series 2 fluorimeter, with sample stirring at 25° C. Fluorescence emission spectra were acquired with excitation and emission slit widths of 4 and 8 nm, respectively. Photomultiplier tube potential was maintained between 400 and 800 volts. Protein concentrations were in the range of 50 to 1000 nM. Fluorophore-specific excitation was at the following approximate wavelengths: tryptophan, 290 nm; acrylodan, 390 nm; fluorescein, 485 nm; pyrene, 340 nm; NBD and NBDE, 490 nm; JPW4039, 485 nm; JPW4042, 470 nm; JPW4045, 470 nm.
Corrections were made for dilution of the protein and for background signal from buffer. Binding curves were fit to binding isotherms using equation 3 or 4, as appropriate.
Analyte affinity measurements. […] The emission wavelength monitored was that of maximum difference in intensity between the ligand-free and bound states. For each conjugate, fluorescence intensiometric observations were fit to a hyperbolic binding isotherm for a two-state model (Marvin et al., Proc. Natl. Acad. Sci. USA 94:4366-4371, 1997): […]

A short description of test [3]: Fluorescence emission spectra without and with saturating ligand (wavelength shift, ΔIstd, ΔRmax). To be noted: unbound vs ligand-saturated. Here is the method:
as §1
Assessment of fluorescent biosensor function. Fluorescence emission spectra of bPBP-fluorophore conjugates were recorded in the absence and presence of saturating ligand concentrations. Spectral changes were characterized by four parameters: wavelength shift (the difference between the wavelengths of emission maximum in the unbound and ligand-saturated states), direction of intensity change (increase or decrease in intensity at the wavelengths of maximum emission in the two states), standard intensity change (ΔIstd), and standard ratiometric change (ΔR). ΔIstd is defined as the normalized intensity change relative to the average intensity, determined at the wavelength mid-point between the two emission maxima:
[formula] where λstd=(λmax, unbound+λmax, saturated)/2 and I1, I2 are the fluorescence intensities at λstd of each spectrum respectively (FIG. 4A). ΔR is defined in terms of two emission bands, A1 ([λ1, λ2]) and A2 ([λ3, λ4]) (FIG. 4B):
[formula] where ^∘A1, […] the areas in the absence of ligand, and ^∞A1, ^∞A2 the areas in the presence of saturating ligand. A computer program was used to enumerate ΔR for all possible pairs of wavelength bands in the two spectra, to identify the optimal sensing condition, defined as the maximum value of ΔR. Adjustable parameters of the algorithm, and their values used for ΔRmax quantities reported here, are: step size (2 nm), step width (10 nm), minimum integration area limit (fraction of total: 0.1), and maximum integration area limit (fraction of total: 1).

Broadly, the Kd is a measure of binding affinity in units of concentration.

B1: Fe(III) BP E57D: Fe(III) BP with Glu57 substituted by Asp to weaken Fe(III) affinity (protein, UniProt P35755 24-332, looked up, variant E57D)
Iron-utilization periplasmic …: DITVYNGQHKEAATAVAKAFEQETGIKVTLNSGKSEQLAGQLKEEGDKTPADVFYTDQTATFADLSEAGLLAPISEQTIQQTAQKGVPLAPKKDWIALSGRSRVVVYDHTKLSEKDMEKSVLDYATPKWKGKIGYVSTSGAFLEQVVALSKMKGDKVALNWLKGLKENGKLYAKNSVALQAVENGEVPAALINNYYWYNLAKEKGVENLKSRLYFVRHQDPGALVSYSGAAVLKASKNQAEAQKFVDFLASKKGQEALVAARAEYPLRADVVSPFNLEPYEKLEAPVVSATTAQDKEHAIKLIEEAGLK
For the molecule B1, in test [1], the Kd was about 0.03 µM.

B2: Fe(III) BP E203C-acrylodan (conjugate, UniProt P35755 24-332, looked up, variant E203C)
Iron-utilization periplasmic …: B1 Iron-utilization periplasmic … with D57E, E203C
modifications: acrylodan label
For the molecule B2, the Kd in test [2] was about 138 µM.

B3: ribose BP T135C NBD (conjugate, UniProt P02925 26-296, looked up, variant T135C)
Ribose import binding protein …: KDTIALVVSTLNNPFFVSLKDGAQKEADKLGYNLVVLDSQNNPAKELANVQDLTVRGTKILLINPTDSDAVGNAVKMANQANIPVITLDRQATKGEVVSHIASDNVLGGKIAGDYIAKKAGEGAKVIELQGIAGCSAARERGEGFQQAVAAHKFNVLASQPADFDRIKGLNVMQNLLTAHPDVQAVFAQNDEMALGALRALQTAGKSDVMVVGFDGTPDGEKAVNDGKLAATIAQLPDQIGAKGVETADKVLKGEKVQAKYPVDLKLVVKQ
modifications: NBD dye conjugate
As to B3, in test [3] (standard intensity change), the ΔIstd worked out at 0.08. Moreover, the ΔRmax in test [3] (standard ratiometric change) worked out at 0.22.
